Experimental data taken from article PMC3515690 (Nature structural & molecular biology, 2012).

What was measured:
[1] = target: T1, Atg7 with residues 290–294 deleted (S. cerevisiae, UniProt P38862 1-630, deletion of residues 290–294); experiment: cross-linking
T1 sequence (looked up): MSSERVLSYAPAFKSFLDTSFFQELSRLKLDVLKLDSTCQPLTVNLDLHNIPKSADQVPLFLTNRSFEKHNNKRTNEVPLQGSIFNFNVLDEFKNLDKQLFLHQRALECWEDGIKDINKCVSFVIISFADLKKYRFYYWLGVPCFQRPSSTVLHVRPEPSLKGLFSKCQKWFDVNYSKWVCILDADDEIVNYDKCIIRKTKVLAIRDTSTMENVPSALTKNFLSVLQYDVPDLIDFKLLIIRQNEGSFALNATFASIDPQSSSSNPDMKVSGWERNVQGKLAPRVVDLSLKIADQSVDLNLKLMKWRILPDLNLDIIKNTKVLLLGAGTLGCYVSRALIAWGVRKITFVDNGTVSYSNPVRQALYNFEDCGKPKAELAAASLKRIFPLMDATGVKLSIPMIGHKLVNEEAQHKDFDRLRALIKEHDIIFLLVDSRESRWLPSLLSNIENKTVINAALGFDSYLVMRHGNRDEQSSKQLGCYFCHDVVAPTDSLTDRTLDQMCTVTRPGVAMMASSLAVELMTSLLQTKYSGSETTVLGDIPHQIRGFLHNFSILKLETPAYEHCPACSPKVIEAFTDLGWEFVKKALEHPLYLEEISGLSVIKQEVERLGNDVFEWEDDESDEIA

Atg7 (residues 1–613) = target: T2, Atg7 (residues 1–613) (S. cerevisiae, UniProt P38862 1-613, catalytic Cys507 linked through bismaleimidoethane (BMOE) to Atg3 Cys234); experiment: crystal structure
T2 sequence (looked up): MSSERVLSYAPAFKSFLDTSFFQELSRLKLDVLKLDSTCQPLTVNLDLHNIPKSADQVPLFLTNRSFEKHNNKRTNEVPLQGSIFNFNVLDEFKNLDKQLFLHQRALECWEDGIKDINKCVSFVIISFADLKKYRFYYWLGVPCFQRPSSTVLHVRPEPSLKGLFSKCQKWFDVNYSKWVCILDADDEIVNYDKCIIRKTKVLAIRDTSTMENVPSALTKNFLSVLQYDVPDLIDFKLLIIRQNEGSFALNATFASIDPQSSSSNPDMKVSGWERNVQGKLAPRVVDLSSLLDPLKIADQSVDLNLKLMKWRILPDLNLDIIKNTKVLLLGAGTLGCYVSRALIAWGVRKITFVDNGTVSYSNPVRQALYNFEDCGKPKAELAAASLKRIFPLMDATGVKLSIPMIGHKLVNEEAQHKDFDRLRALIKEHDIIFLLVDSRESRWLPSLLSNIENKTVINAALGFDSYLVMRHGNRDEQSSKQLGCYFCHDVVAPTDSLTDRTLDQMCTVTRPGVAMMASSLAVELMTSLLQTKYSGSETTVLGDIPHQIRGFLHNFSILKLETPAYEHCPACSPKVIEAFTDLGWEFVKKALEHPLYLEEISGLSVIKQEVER

B1: Atg3(C41A C76A C83A) (enzyme, S. cerevisiae)
chain: MIRSTLSSWREYLTPITHKSTFLTTGQITPEEFVQAGDYLAHMFPTWKWNEESSDISYRDFLPKNKQFLIIRKVPADKRAEQAVEVEGPDVIMKGFAEDGDEDDVLEYIGSETEHVQSTPAGGTKDSSIDDIDELIQDMEIKEEDENDDTEEFNAKGGLAKDMAQERYYDLYIAYSTSYRVPKMYIVGFNSNGSPLSPEQMFEDISADYRTKTATIEKLPFYKNSVLSVSIHPCKHANVMKILLDKVRVVRQRRRKELQEEQELDGVGDWEDLQDDIDDSLRVDQYLIVFLKFITSVTPSIQHDYTMEGW
modifications: Cys234 reacted with bismaleimidoethane (BMOE)
binding result [1]: binds | binding result (Atg7 (residues 1–613)): binds
